The record followed here is patent US20260250398A1.

This assay has as its target FZD/LRP. The assay can be described thus: cell-based or functional assay.

Wnt3a, recombinantly produced ligand: the TOPFLASH % Wnt Maxima came out at 100 % Wnt Maxima and the TOPFLASH EC50 is 6 nM.
